Results as given in patent publication US20120309939A1 (Scripps Research, published 2012).

Molecular target: T1, human VEGF-R2(KDR):Fc fusion protein (R&D Systems) (human, UniProt P35968 20-764)
T1 construct: Bought reagent, coated on Maxisorp plates; also called VEGF receptor; human VEGF receptor; not shown: Fc part of the bought fusion
Test: ELISA on plates coated with VEGF-R2(KDR):Fc; bound VEGF detected with biotinylated anti-VEGF

T1 sequence (P35968 20-764 limits assumed): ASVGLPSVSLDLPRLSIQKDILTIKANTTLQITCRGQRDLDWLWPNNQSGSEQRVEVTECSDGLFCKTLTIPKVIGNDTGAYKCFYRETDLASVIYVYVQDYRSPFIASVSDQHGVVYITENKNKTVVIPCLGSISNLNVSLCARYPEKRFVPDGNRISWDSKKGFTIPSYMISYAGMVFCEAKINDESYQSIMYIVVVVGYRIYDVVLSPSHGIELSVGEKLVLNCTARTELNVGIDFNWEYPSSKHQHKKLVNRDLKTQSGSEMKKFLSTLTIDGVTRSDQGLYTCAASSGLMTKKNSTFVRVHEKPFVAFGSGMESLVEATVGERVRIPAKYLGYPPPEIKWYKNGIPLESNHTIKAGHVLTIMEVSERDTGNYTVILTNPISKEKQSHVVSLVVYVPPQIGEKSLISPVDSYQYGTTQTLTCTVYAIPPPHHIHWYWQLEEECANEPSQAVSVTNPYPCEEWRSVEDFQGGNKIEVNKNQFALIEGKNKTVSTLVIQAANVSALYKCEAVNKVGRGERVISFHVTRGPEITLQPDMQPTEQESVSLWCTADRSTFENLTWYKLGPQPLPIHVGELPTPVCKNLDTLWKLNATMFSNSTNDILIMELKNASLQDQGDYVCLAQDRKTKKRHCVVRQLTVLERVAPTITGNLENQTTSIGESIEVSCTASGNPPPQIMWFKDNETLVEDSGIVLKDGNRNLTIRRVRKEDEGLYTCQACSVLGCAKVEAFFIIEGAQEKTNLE

B1: algal-expressed human vascular endothelial growth factor (VEGF) isoform 121, without signal peptide, with C-terminal FLAG-tag, made in the C. reinhardtii … (ligand)
chain: MVPAPMAEGGGQNHHEVVKFMDVYQRSYCHPIETLVDIFQEYPDEIEYIFKPSCVPLMRCGGCCNDEGLECVPTEESNITMQIMRIKPHQGQHIGEMSFLQHNKCECRPKKDRARQENCDKPRRGTGENLYFQGSGGGGSDYKDDDDKGTG
notes: Native VEGF is active as a dimer; also called algal VEGF; algae-derived VEGF
- binding result: binds
